Substrate in this series: Nc1nc2c(ncn2[C@H]2C[C@H](O)[C@@H](COP(=O)(O)OP(=O)(O)OP(=O)(O)O)O2)c(=O)[nH]1
The series can be described thus: purified protein. In kind it is biochemical, Thermococcus kodakarensis. As to conditions: matched primer-template C-G (prothrombin factor II), Tris-HCl pH 8, 1.5 mM MgCl2, temperature not stated for kinetics (55 °C in primer extension assay).

The values that follow come from PMC5568139, “Variants of sequence family B Thermococcus kodakaraensis DNA polymerase with increased mismatch extension selectivity” (PLoS ONE, 2017).

B1: KOD pol wildtype (3'-5'-exonuclease deficient Thermococcus kodakaraensis DNA polymerase) (Thermococcus kodakarensis KOD1; D141A/E143A) (protein)
chain 1: MILDTDYITEDGKPVIRIFKKENGEFKIEYDRTFEPYFYALLKDDSAIEEVKKITAERHGTVVTVKRVEKVQKKFLGRPVEVWKLYFTHPQDVPAIRDKIREHPAVIDIYEYDIPFAKRYLIDKGLVPMEGDEELKMLAFAIATLYHEGEEFAEGPILMISYADEEGARVITWKNVDLPYVDVVSTEREMIKRFLRVVKEKDPDVLITYNGDNFDFAYLKKRCEKLGINFALGRDGSEPKIQRMGDRFAVEVKGRIHFDLYPVIRRTINLPTYTLEAVYEAVFGQPKEKVYAEEITTAWETGENLERVARYSMEDAKVTYELGKEFLPMEAQLSRLIGQSLWDVSRSSTGNLVEWFLLRKAYERNELAPNKPDEKELARRRQSYEGGYVKEPERGLWENIVYLDFR
chain 2: SLYPSIIITHNVSPDTLNREGCKEYDVAPQVGHRFCKDFPGFIPSLLGDLLEERQKIKKKMKATIDPIERKLLDYRQRAIKILAN
chain 3: SYYGYYGYARARWYCKECAESVTAWGREYITMTIKEIEEKYGFKVIYSDTDGFFATIPGADAETVKKKAMEFLKYINAKLPGALELEYEGFYKRGFFVTKKKYAVIDEEGKITTRGLEIVRRDWSEIAKETQARVLEALLKDGDVEKAVRIVKEVTEKLSKYEVPPEKLVIHEQITRDLKDYKATGPHVAVAKRLAARGVKIRPGTVISYIVLKGSGRIGDRAIPFDEFDPTKHKYDAEYYIENQVLPAVERILRAFGYRKEDLRYQKTRQVGLSAWLKPKGT
notes: mature intein-free polymerase expected (precursor holds two inteins); pET21a, E. coli BL21(DE3), Ni resin
With B1, the Km – broadly, the substrate concentration at which the rate is half of its maximum – was determined as 0.168 ± 0.04 µM; the kcat (commonly the number of substrate molecules converted per active site and unit of time at saturation) was found to be 0.81 ± 0.12 s⁻¹; the kcat/Km (usually the second-order rate constant that governs catalysis at low substrate concentration) stood at 4.8e+06 ± 1.9e+06 M⁻¹ s⁻¹.

B2: KOD pol wildtype (3'-5'-exonuclease deficient Thermococcus kodakaraensis DNA polymerase) (Thermococcus kodakarensis KOD1; D141A/E143A/R1398C) (protein)
chain 1: MILDTDYITEDGKPVIRIFKKENGEFKIEYDRTFEPYFYALLKDDSAIEEVKKITAERHGTVVTVKRVEKVQKKFLGRPVEVWKLYFTHPQDVPAIRDKIREHPAVIDIYEYDIPFAKRYLIDKGLVPMEGDEELKMLAFAIATLYHEGEEFAEGPILMISYADEEGARVITWKNVDLPYVDVVSTEREMIKRFLRVVKEKDPDVLITYNGDNFDFAYLKKRCEKLGINFALGRDGSEPKIQRMGDRFAVEVKGRIHFDLYPVIRRTINLPTYTLEAVYEAVFGQPKEKVYAEEITTAWETGENLERVARYSMEDAKVTYELGKEFLPMEAQLSRLIGQSLWDVSRSSTGNLVEWFLLRKAYERNELAPNKPDEKELARRRQSYEGGYVKEPERGLWENIVYLDFR
chain 2: SLYPSIIITHNVSPDTLNREGCKEYDVAPQVGHRFCKDFPGFIPSLLGDLLEERQKIKKKMKATIDPIERKLLDYRQRAIKILAN
chain 3: SYYGYYGYACARWYCKECAESVTAWGREYITMTIKEIEEKYGFKVIYSDTDGFFATIPGADAETVKKKAMEFLKYINAKLPGALELEYEGFYKRGFFVTKKKYAVIDEEGKITTRGLEIVRRDWSEIAKETQARVLEALLKDGDVEKAVRIVKEVTEKLSKYEVPPEKLVIHEQITRDLKDYKATGPHVAVAKRLAARGVKIRPGTVISYIVLKGSGRIGDRAIPFDEFDPTKHKYDAEYYIENQVLPAVERILRAFGYRKEDLRYQKTRQVGLSAWLKPKGT
notes: as for B1
For the protein B2, the Km amounted to 96 ± 21 µM, the kcat amounted to 8.3 ± 0.6 s⁻¹ and the kcat/Km turned out to be 90000 ± 20000 M⁻¹ s⁻¹.
